# Data published in the RNAGym collection of RNA variant scans (doi:10.7554/elife.80360).
# B1: CPEB3 Ribozyme (parent)
# chain: GGGGGCCACAGCAGAAGCGUUCACGUCGCGGCCCCUGUCAGAUUCUGGUGAAUCUGCGAAUUCUGCUGU
# Variants of: B1
# Test: self-cleavage, relative activity (ratio to wild type); higher = more cleavage; co-transcriptional
row,Variant,self-cleavage
1,G14A G48C,0.836
2,G14A G48U,0.943
3,G14A G48A,0.868
4,A13U G68C,0.841
5,A13U G68A,0.903
6,A13U G68U,0.886
7,A13U G48U,0.916
8,A13U G48C,0.872
9,A13U C45A,0.764
10,A13U C45G,0.814
11,A13G U69G,1.01
12,A13G U69C,1.04
13,G14A C34A,0.419
14,G14A C34G,0.23
15,G14A C33A,0.519
16,A13G G30C,0.711
17,A13G G30A,0.856
18,A13U A16C,0.14
19,A13U A16U,0.34
20,A13U A16G,0.589
21,A13U C34G,0.309
22,A13U C34A,0.704
23,A13G U49A,0.95
24,A13G G65U,0.561

row,Variant,self-cleavage
1,A13U G31C,0.217
2,A13U G31U,0.402
3,A13U U62A,0.438
4,A13U C24U,0.364
5,A13U C24A,0.301
6,A13U U67C,0.66
7,A13U U67A,0.629
8,A13G C57U,0.358
9,A13G C57G,0.36
10,A13U U36A,0.121
11,A13U U36G,0.136
12,A13U U53A,0.514
13,A13U U53G,0.398
14,A13G U67A,0.889
15,A13G U67C,0.94
16,G14A C66G,0.287
17,G14A C66U,0.375
18,G14A C66A,0.262
19,A13U G56C,0.31
20,A13U G56A,0.688
21,A13G G19A,0.155
22,A13G G19U,0.0922
23,G14A A52U,0.643
24,G14A A52C,0.688

row,Variant,self-cleavage
1,A13U U69G,0.961
2,A13U U69C,1
3,A13U U69A,0.89
4,G14C A15C,0.166
5,G14A U62C,0.338
6,G14A U62G,0.605
7,G14A U62A,0.554
8,A13G G37C,0.109
9,A13G G37U,0.184
10,A13G G37A,0.172
11,A13U U43C,0.678
12,A13U U43A,0.31
13,G14A C54A,0.239
14,A13G U46A,1.02
15,A13G U46G,0.979
16,A13G C45A,0.889
17,A13G C45U,0.917
18,A13U A52C,0.8
19,A13U A52U,0.776
20,A13U A52G,0.902
21,G14A G56U,0.321
22,G14A G56C,0.261
23,G14A G56A,0.466
24,A13U U20C,0.145

row,Variant,self-cleavage
1,A13U U20G,0.185
2,G14C A60G,0.265
3,A13G U64A,0.843
4,A13G U64C,1
5,A13G U64G,0.745
6,A13U A60G,0.398
7,A13U A60U,0.356
8,A13U U61C,0.32
9,A13U U61G,0.46
10,A13U U61A,0.456
11,G14A C57G,0.258
12,G14A C57A,0.264
13,A13G U38C,0.938
14,A13G U38A,0.898
15,A13G U38G,0.149
16,A13G U43G,0.539
17,A13G U43C,0.785
18,G14A A23G,0.444
19,G14A A23C,0.582
20,G14C A42G,0.266
21,G14C A42U,0.228
22,G14C A42C,0.331
23,A13U C29A,0.178
24,A13U C29U,0.138

row,Variant,self-cleavage
1,A13U C29G,0.0771
2,G14A G47C,0.827
3,G14A G47U,0.889
4,A13U C66A,0.323
5,A13U C66U,0.583
6,A13G G25U,0.118
7,A13G G25C,0.135
8,A13G G25A,0.186
9,G14A U53C,0.273
10,G14A G65C,0.311
11,G14A G65U,0.3
12,A13G G14C,0.255
13,A13G G14A,0.276
14,A13G G14U,0.146
15,G14A U67G,0.682
16,G14A U67A,0.635
17,G14A U67C,0.583
18,G14A U26A,0.346
19,G14A C32A,0.336
20,G14A C32G,0.212
21,G14A C39G,0.385
22,G14A C39A,0.22
23,G14A C39U,0.362
24,A13U G14A,0.328

row,Variant,self-cleavage
1,A13U G14U,0.437
2,A13G G58C,0.878
3,A13G G58A,0.902
4,A13G G58U,1.01
5,G14A G31C,0.183
6,G14A G31A,0.249
7,G14A C22G,0.166
8,A13U G25A,0.168
9,G14A C27A,0.14
10,G14A C27U,0.134
11,A13G G17U,0.214
12,A13G G17A,0.0885
13,G14C A59U,0.263
14,G14C A59C,0.262
15,G14C A51G,0.666
16,G14C A51C,0.337
17,A13G U44G,0.826
18,A13G C66G,0.489
19,G14C A40C,0.183
20,G14C A40G,0.324
21,G14A A40G,0.495
22,G14A A40C,0.234
23,A13G C33G,0.638
24,G14C C29A,0.0734

row,Variant,self-cleavage
1,A13G C39G,0.758
2,A13G C39U,0.8
3,A13G U61C,0.402
4,A13G U61G,0.53
5,G14C C22G,0.122
6,G14C C22A,0.142
7,G14C C22U,0.0705
8,A13U A59G,0.784
9,A13U A59C,0.33
10,A13U G65A,0.513
11,A13U G65U,0.419
12,A13U G65C,0.417
13,G14A G30A,0.235
14,G14A A42C,0.343
15,A13G U55G,0.51
16,A13G U55C,0.621
17,G14C A16G,0.353
18,G14C A16U,0.28
19,G14C A16C,0.143
20,G14A U61A,0.357
21,G14A U46G,0.844
22,G14A U46C,0.709
23,G14C C18G,0.101
24,A13U U38C,0.704

row,Variant,self-cleavage
1,A13U U38A,0.609
2,A13U U38G,0.198
3,A13U C63G,0.294
4,A13U C63A,0.317
5,A13G U53C,0.628
6,A13G U53G,0.737
7,A13G U53A,0.87
8,G14A U44C,0.363
9,G14A U44A,0.538
10,G14A U44G,0.64
11,A13U G47A,0.893
12,A13U G47U,0.881
13,G14A U38A,0.478
14,A13U G41C,0.247
15,A13U G41A,0.263
16,A13U C27A,0.207
17,A13U U46C,0.873
18,A13U U46G,0.905
19,A13U U46A,0.942
20,A13U A42U,0.494
21,A13U A42G,0.645
22,A13U G19A,0.145
23,A13U G19C,0.133
24,A13U G19U,0.15

row,Variant,self-cleavage
1,G14A G28C,0.146
2,G14A G41A,0.196
3,A13G G28U,0.15
4,A13G G28C,0.18
5,A13G C54G,0.772
6,A13G C54A,0.642
7,A13U A15U,0.56
8,A13U A15G,0.79
9,A13U A15C,0.354
10,A13G G48U,0.914
11,A13G G48A,0.968
12,A13G G41A,0.448
13,A13U U44C,0.345
14,A13U U44G,0.575
15,G14A G19A,0.16
16,G14A G19C,0.106
17,A13U U64C,0.853
18,A13U U64G,0.969
19,A13U U64A,0.945
20,A13U A51C,0.828
21,A13U A51U,0.858
22,A13U A51G,0.837
23,G14A C18G,0.208
24,G14A C18U,0.179

row,Variant,self-cleavage
1,G14A C18A,0.163
2,G14A A15C,0.305
3,A13U C32A,0.542
4,A13U C32G,0.229
5,A13U G37C,0.186
6,A13U G37U,0.196
7,A13U C33G,0.333
8,A13U C33A,0.759
9,A13G U26G,0.935
10,A13G U26C,0.78
11,A13U U49C,0.78
12,G14A U43A,0.306
13,G14A U43C,0.624
14,G14A U43G,0.23
15,A13U C39G,0.508
16,A13U C39A,0.394
17,G14A G17U,0.111
18,A13U C18G,0.119
19,A13U C18U,0.19
20,G14A A60G,0.358
21,G14A A60U,0.23
22,G14A A60C,0.28
23,A13U U55A,0.246
24,A13U U55G,0.234

row,Variant,self-cleavage
1,A13G G31U,0.555
2,A13G G31A,0.775
3,A13U G30A,0.487
4,A13U G30C,0.393
5,A13U G30U,0.228
6,G14A G25A,0.156
7,G14A G25C,0.105
8,G14A G25U,0.0915
9,A13U C57U,0.308
10,A13U C57G,0.226
11,G14A U64G,0.576
12,G14A U64C,0.346
13,G14A C63A,0.829
14,G14A C45G,0.638
15,G14A C45A,0.612
16,G14A C45U,0.778
17,G14C C24U,0.175
18,A13G G50A,0.896
19,A13G G50C,0.881
20,A13G G50U,0.973
21,G14A C35U,0.668
22,A13G G56U,0.742
23,A13G G56C,0.421
24,A13G G56A,0.934

row,Variant,self-cleavage
1,G14A G50U,0.743
2,G14A G50A,0.778
3,G14A G50C,0.61
4,G14A A16G,0.463
5,G14A A16U,0.353
6,G14A A16C,0.136
7,A13G C34A,0.797
8,A13G C34U,1.02
9,A13G C34G,0.293
10,A13U A40G,0.607
11,G14C A52G,0.57
12,A13G U62G,0.445
13,A13G U62A,0.622
14,A13G U62C,0.449
15,G14A G37A,0.191
16,A13G U20G,0.0546
17,A13G C63U,0.842
18,A13G C63G,0.504
19,A13G C63A,0.26
20,A13U G28C,0.125
21,A13U G28A,0.134
22,A13U G50C,0.756
23,A13U G50U,0.857
24,A13U G50A,0.776

row,Variant,self-cleavage
1,A13U U21G,0.173
2,A13U U21C,0.691
3,A13U U21A,0.785
4,A13U G58A,0.758
5,G14A A51C,0.486
6,G14A A51U,0.75
7,G14A U49C,0.646
8,G14A C24U,0.2
9,G14A C24A,0.238
10,G14A U55C,0.281
11,G14A U55G,0.172
12,A13G C32G,0.318
13,A13G C32U,0.916
14,A13G C32A,0.773
15,A13U A23U,0.963
16,A13U A23G,0.618
17,G14A C29U,0.113
18,A13G G47U,1.06
19,A13G G47A,0.994
20,G14C C27A,0.146
21,G14C C27G,0.159
22,G14C C27U,0.14
23,G14A A59U,0.369
24,G14A A59G,0.704

row,Variant,self-cleavage
1,A13U G17U,0.163
2,A13U G17A,0.102
3,G14A U20A,0.132
4,G14A U20G,0.124
5,G14A U36A,0.0973
6,G14A U36C,0.442
7,G14A G68C,0.756
8,A13G U21A,0.966
9,A13G U21C,0.74
10,A13G U21G,0.355
11,A13G C35G,0.446
12,G14C A23C,0.555
13,G14C A23U,0.761
14,A13G G68A,1.01
15,A13U C54A,0.29
16,A13U C54U,0.729
17,A13G U36A,0.222
18,A13G U36C,0.816
19,A13U C35G,0.258
20,G14A G58C,0.674
21,G14A G58U,0.895
22,G14A G58A,0.703
